Experiment [1] concerns the target PR20, extreme drug-resistant mutant of mature HIV-1 protease (HIV-1). The experiment is described as follows: enzyme activity against protease concentration.
Experiment [2] has as its target PR, mature HIV-1 protease containing the mutations Q7K, L33I, L63I, C67A, C95A (HIV-1). Nature of the experiment: differential scanning calorimetry. (In DSC, transitions show as peaks or steps in heat flow.)
The target of experiment [3] is ScPR, single-chain dimer of two PR monomers linked by a GGSSG sequence (HIV-1). Nature of the experiment: differential scanning calorimetry.

pKd: −log10 of the molar value.

As usually defined, the pKd is the negative decadic logarithm of the Kd, by convention in mol/L.

In experiment [1], “PR20, extreme drug-resistant mutant of mature HIV-1 protease (enzyme)” had a pKd of 7.54.
With “RPB, substrate (CA/SP1) analogue inhibitor H-Arg-Val-Leu-(r)-Phe-Glu-Ala-Nle-NH2 (peptide)”, the ΔTm (I), Tm(+inhibitor)-Tm(−inhibitor) in experiment [2] was 9.2 °C; in experiment [3], 7.8 °C.

The record behind these values is article PMC3888107.
